The record followed here is publication PMC11315935, “Multi-layered heterochromatin interaction as a switch for DIM2-mediated DNA methylation” (Nature Communications, 2024).

In data set [1] the test system is (CTA)12/(TAG)12 36-mer DNA duplex. Kind of data set: In vitro DNA methylation assay of DIM2 (WT or mutant). It counts as biochemical. Further details: DNA methylation activity: unit not given here. The settings on record: for DNA methylation activity: 30 min, pH 8.0; for reduction of DNA methylation efficiency of DIM2 by mutation: vs WT DIM2.
Data set [2] deals with HP1. Kind of data set: Size-exclusion chromatography of DIM2-HP1 complex. It counts as binding, Neurospora Crassa. The settings on record: 1.0 µM DIM2 and/or 2.5 µM HP1, Superdex 200 increase 10/300 GL, pH 7.5. As to the method: For size-exclusion chromatography analysis, 400 µL of the sample mixture containing 1.0 µM DIM2 and/or 2.5 µM HP1 was loaded onto Superdex 200 increase 10/300 GL column (GE Healthcare) and eluted at a flow rate of 0.5 mL/min, in the buffer containing 20 mM Tris-HCl (pH 7.5), 100 mM NaCl, 5% glycerol, and 5 mM DTT. The proteins in each fraction were then visualized by SDS-PAGE.
A general note: In gel filtration, larger molecules generally elute earlier.

Data set [3] can be described thus: Thermal shift assay, protein alone. The settings on record: 5 μM DIM2 or 10 µM HP1, pH 7.5, 1× GloMelt Dye, 4 to 95 °C, triplicate. It is filed as physicochemical. As to the method: Thermal shift assays were performed for WT and R1104A DIM2 proteins using a Bio-Rad CFX Connect Real-Time PCR Detection System. Each 20-µL reaction mixture contained 5 μM WT or R1104A-mutated DIM2, and/or 10 µM HP1 protein, dissolved in buffer containing 20 mM Tris-HCl (pH 7.5), 100 mM NaCl, 5% glycerol, 5 mM DTT, and 1× GloMelt Dye (Biotium). The sample plates were subject to heat from 4 to 95 °C with a stepwise increment of 5 °C. Fluorescence intensity was recorded with the excitation and emission wavelength of 470 nm and 510 nm, respectively. The experiments were carried out in triplicate.

In data set [4] the test system is DNA duplex (Upper strand: 5’-ATTATTAATCTAAATTTA-3’). Kind of data set: Electrophoretic mobility shift assay (EMSA). The settings on record: 0.1 µM DNA duplex, 0, 0.2 or 0.4 µM DIM2, in presence of 0.8 µM H3K9me3 peptide, pH 8.0, 4 °C. It is filed as binding. As for the experimental part:
Each 10-µL reaction mixture contained 0.1 µM DNA duplex (Upper strand: 5’-[…]-3’) mixed with 0, 0.2, or 0.4 µM DIM2, WT or mutant (W261A or W581A), and/or 0.8 µM H3K9me3 peptide in binding buffer containing 20 mM Tris-HCl (pH 8.0), 75 mM NaCl, 10% glycerol, 5 mM DTT, and 2% NP-40. Samples were resolved on a 5% w/v polyacrylamide gel (59:1 for acrylamide:bis-acrylamide) with the running buffer containing 1 × Tris-Glycine (pH 8.6) at 4 °C for 1 h. The gel was stained with SYBR™ Gold (Thermo Fisher Scientific) for 10 min and visualized by ChemiDoc Imaging System (Bio-Rad).

Where [5] appears, read: Fig. 6d, H3_1-24K9me3 binding-associated mutants, 1.0 µM DIM2, 1.0 µM DNA duplex, 30 °C, replicate 1.
[6] abbreviates: Fig. 6d, H3_1-24K9me3 binding-associated mutants, 1.0 µM DIM2, 1.0 µM DNA duplex, 30 °C, replicate 2.
Setting [7] is: Fig. 6d, H3_1-24K9me3 binding-associated mutants, 1.0 µM DIM2, 1.0 µM DNA duplex, 30 °C, replicate 3.

Entries after “also recorded” stand apart in the source; their conditions may differ.

B1: DIM2R1104A: DIM2 with TRD mutation R1104A (protein)
chain: MDSPDRSHGGMFIDVPAETMGFQEDYLDMFASVLSQGLAKEGDYAHHQPLPAGKEECLEPIAVATTITPSPDDPQLQLQLELEQQFQTESGLNGVDPAPAPESEDEADLPDGFSDESPDDDFVVQRSKHITVDLPVSTLINPRSTFQRIDENDNLVPPPQSTPERVAVEDLLKAAKAAGKNKEDYIEFELHDFNFYVNYAYHPQEMRPIQLVATKVLHDKYYFDGVLKYGNTKHYVTGMQVLELPVGNYGASLHSVKGQIWVRSKHNAKKEIYYLLKKPAFEYQRYYQPFLWIADLGKHVVDYCTRMVERKREVTLGCFKSDFIQWASKAHGKSKAFQNWRAQHPSDDFRTSVAANIGYIWKEINGVAGAKRAAGDQLFRELMIVKPGQYFRQEVPPGPVVTEGDRTVAATIVTPYIKECFGHMILGKVLRLAGEDAEKEKEVKLAKRLKIENKNATKADTKDDMKNDTATESLPTPLRSLPVQVLEATPIESDIVSIVSSDLPPSENNPPPLTNGSVKPKAKANPKPKPSTQPLHAAHVKYLSQELVNKIKVGDVISTPRDDSSNTDTKWKPTDTDDHRWFGLVQRVHTAKTKSSGRGLNSKSFDVIWFYRPEDTPCCAMKYKWRNELFLSNHCTCQEGHHARVKGNEVLAVHPVDWFGTPESNKGEFFVRQLYESEQRRWITLQKDHLTCYHNQPPKPPTAPYKPGDTVLATLSPSDKFSDPYEVVEYFTQGEKETAFVRLRKLLRRRKVDRQDAPANELVYTEDLVDVRAERIVGKCIMRCFRPDERVPSPYDRGGTGNMFFITHRQDHGRCVPLDTLPPTLRQGFNPLGNLGKPKLRGMDLYCGGGNFGRGLEEGGVVEMRWANDIWDKAIHTYMANTPDPNKTNPFLGSVDDLLRLALEGKFSDNVPRPGEVDFIAAGSPCPGFSLLTQDKKVLNQVKNQSLVASFASFVDFYRPKYGVLENVSGIVQTFVNRKQDVLSQLFCALVGMGYQAQLILGDAWAHGAPQSRERVFLYFAAPGLPLPDPPLPSHSHYRVKNRNIGFLCNGESYVQRSFIPTAFKFVSAGEGTADLPKIGDGKPDACVRFPDHRLASGITPYIAAQYACIPTHPYGMNFIKAWNNGNGVMSKSDRDLFPSEGKTRTSDASVGWKRLNPKTLFPTVTTTSNPSDARMGPGLHWDEDRPYTVQEMRRAQGYLDEEVLVGRTTDQWKLVGNSVSRHMALAIGLKFREAWLGTLYD
modifications: left off: His6, N-terminal, cleaved | MBP, N-terminal, cleaved
notes: DIM2 with TRD mutation R1104A
As for B1, the DNA methylation activity in data set [1] (Fig. 3h, in the presence of HP1 (2 µM) and H3_1-24K9me3 peptide (1.0 µM), 1.0 µM DIM2, 30 °C, replicate 1) is given as 3.1; in data set [1] (Fig. 3h, in the presence of HP1 (2 µM) and H3_1-24K9me3 peptide (1.0 µM), 1.0 µM DIM2, 30 °C, replicate 2), 2.552; in data set [1] (Fig. 3h, in the presence of HP1 (2 µM) and H3_1-24K9me3 peptide (1.0 µM), 1.0 µM DIM2, 30 °C, replicate 3) it was 2.87. For the same molecule, the “DIM2-HP1 complex formation (in words)” value in data set [2] is recorded as “did not affect the assembly of the DIM2-HP1 complex appreciably; also recorded: barely impacts the association of the DIM2-HP1 complex”. For the same molecule, the “melting temperature (Tm)” value in data set [3] is 39.5 °C.

B2: DIM2W581A: DIM2 with W581A mutation to the BAH1 domain (protein)
chain: MDSPDRSHGGMFIDVPAETMGFQEDYLDMFASVLSQGLAKEGDYAHHQPLPAGKEECLEPIAVATTITPSPDDPQLQLQLELEQQFQTESGLNGVDPAPAPESEDEADLPDGFSDESPDDDFVVQRSKHITVDLPVSTLINPRSTFQRIDENDNLVPPPQSTPERVAVEDLLKAAKAAGKNKEDYIEFELHDFNFYVNYAYHPQEMRPIQLVATKVLHDKYYFDGVLKYGNTKHYVTGMQVLELPVGNYGASLHSVKGQIWVRSKHNAKKEIYYLLKKPAFEYQRYYQPFLWIADLGKHVVDYCTRMVERKREVTLGCFKSDFIQWASKAHGKSKAFQNWRAQHPSDDFRTSVAANIGYIWKEINGVAGAKRAAGDQLFRELMIVKPGQYFRQEVPPGPVVTEGDRTVAATIVTPYIKECFGHMILGKVLRLAGEDAEKEKEVKLAKRLKIENKNATKADTKDDMKNDTATESLPTPLRSLPVQVLEATPIESDIVSIVSSDLPPSENNPPPLTNGSVKPKAKANPKPKPSTQPLHAAHVKYLSQELVNKIKVGDVISTPRDDSSNTDTKWKPTDTDDHRAFGLVQRVHTAKTKSSGRGLNSKSFDVIWFYRPEDTPCCAMKYKWRNELFLSNHCTCQEGHHARVKGNEVLAVHPVDWFGTPESNKGEFFVRQLYESEQRRWITLQKDHLTCYHNQPPKPPTAPYKPGDTVLATLSPSDKFSDPYEVVEYFTQGEKETAFVRLRKLLRRRKVDRQDAPANELVYTEDLVDVRAERIVGKCIMRCFRPDERVPSPYDRGGTGNMFFITHRQDHGRCVPLDTLPPTLRQGFNPLGNLGKPKLRGMDLYCGGGNFGRGLEEGGVVEMRWANDIWDKAIHTYMANTPDPNKTNPFLGSVDDLLRLALEGKFSDNVPRPGEVDFIAAGSPCPGFSLLTQDKKVLNQVKNQSLVASFASFVDFYRPKYGVLENVSGIVQTFVNRKQDVLSQLFCALVGMGYQAQLILGDAWAHGAPQSRERVFLYFAAPGLPLPDPPLPSHSHYRVKNRNIGFLCNGESYVQRSFIPTAFKFVSAGEGTADLPKIGDGKPDACVRFPDHRLASGITPYIRAQYACIPTHPYGMNFIKAWNNGNGVMSKSDRDLFPSEGKTRTSDASVGWKRLNPKTLFPTVTTTSNPSDARMGPGLHWDEDRPYTVQEMRRAQGYLDEEVLVGRTTDQWKLVGNSVSRHMALAIGLKFREAWLGTLYD
modifications: left off: His6, N-terminal, cleaved | MBP, N-terminal, cleaved
notes: DIM2 with W581A mutation to the BAH1 domain
Turning to B2, the DNA methylation activity in data set [1] (setting [5]) stood at 4.016; in data set [1] (setting [6]), 4.128; in data set [1] (setting [7]), 4.356. For the same molecule, the “reduction of DNA methylation efficiency of DIM2 by mutation” value in data set [1] is reported as 4–5 fold. Moreover, the “DNA-binding affinity of DIM2 (in words)” value in data set [4] is “modestly reduced the DNA-binding affinity”.

B3: DIM2W261A: DIM2 with W261A mutation to the RFTS domain (protein)
chain: MDSPDRSHGGMFIDVPAETMGFQEDYLDMFASVLSQGLAKEGDYAHHQPLPAGKEECLEPIAVATTITPSPDDPQLQLQLELEQQFQTESGLNGVDPAPAPESEDEADLPDGFSDESPDDDFVVQRSKHITVDLPVSTLINPRSTFQRIDENDNLVPPPQSTPERVAVEDLLKAAKAAGKNKEDYIEFELHDFNFYVNYAYHPQEMRPIQLVATKVLHDKYYFDGVLKYGNTKHYVTGMQVLELPVGNYGASLHSVKGQIAVRSKHNAKKEIYYLLKKPAFEYQRYYQPFLWIADLGKHVVDYCTRMVERKREVTLGCFKSDFIQWASKAHGKSKAFQNWRAQHPSDDFRTSVAANIGYIWKEINGVAGAKRAAGDQLFRELMIVKPGQYFRQEVPPGPVVTEGDRTVAATIVTPYIKECFGHMILGKVLRLAGEDAEKEKEVKLAKRLKIENKNATKADTKDDMKNDTATESLPTPLRSLPVQVLEATPIESDIVSIVSSDLPPSENNPPPLTNGSVKPKAKANPKPKPSTQPLHAAHVKYLSQELVNKIKVGDVISTPRDDSSNTDTKWKPTDTDDHRWFGLVQRVHTAKTKSSGRGLNSKSFDVIWFYRPEDTPCCAMKYKWRNELFLSNHCTCQEGHHARVKGNEVLAVHPVDWFGTPESNKGEFFVRQLYESEQRRWITLQKDHLTCYHNQPPKPPTAPYKPGDTVLATLSPSDKFSDPYEVVEYFTQGEKETAFVRLRKLLRRRKVDRQDAPANELVYTEDLVDVRAERIVGKCIMRCFRPDERVPSPYDRGGTGNMFFITHRQDHGRCVPLDTLPPTLRQGFNPLGNLGKPKLRGMDLYCGGGNFGRGLEEGGVVEMRWANDIWDKAIHTYMANTPDPNKTNPFLGSVDDLLRLALEGKFSDNVPRPGEVDFIAAGSPCPGFSLLTQDKKVLNQVKNQSLVASFASFVDFYRPKYGVLENVSGIVQTFVNRKQDVLSQLFCALVGMGYQAQLILGDAWAHGAPQSRERVFLYFAAPGLPLPDPPLPSHSHYRVKNRNIGFLCNGESYVQRSFIPTAFKFVSAGEGTADLPKIGDGKPDACVRFPDHRLASGITPYIRAQYACIPTHPYGMNFIKAWNNGNGVMSKSDRDLFPSEGKTRTSDASVGWKRLNPKTLFPTVTTTSNPSDARMGPGLHWDEDRPYTVQEMRRAQGYLDEEVLVGRTTDQWKLVGNSVSRHMALAIGLKFREAWLGTLYD
modifications: left off: His6, N-terminal, cleaved | MBP, N-terminal, cleaved
notes: DIM2 with W261A mutation to the RFTS domain
In the case of B3, the figures for the DNA methylation activity in data set [1] (setting [5]), in data set [1] (setting [6]) and in data set [1] (setting [7]) were 3.359, 3.206 and 3.347, respectively. The “reduction of DNA methylation efficiency of DIM2 by mutation” value in data set [1] is recorded as 4–5 fold. Besides, the “DNA-binding affinity of DIM2 (in words)” value in data set [4] is reported as “modestly reduced the DNA-binding affinity”.
